According to PMC10657439 (Cell Death and Differentiation, 2023):
Substitutions are numbered along the chain they refer to. Names and notes keep the numbering of the source.

Tests used:
[1] = biological target: Fas R86A mutant tested for E09 binding (human) (UniProt P25445); test: ELISA
[2] = biological target: His-Fas (His-tagged human Fas extracellular domain, wild type) (human); test: ELISA
His-Fas^R87A (human) = test: ELISA
[3] = biological target: Fas (CD95), endogenous on human cells (human (endogenous in OVCAR3, Jurkat, PBMC-derived T cells)) (UniProt P25445)
[4] = biological target: T1, His-Fas (His-tagged human Fas extracellular domain, wild type) (human); test: BLI
T1 chain: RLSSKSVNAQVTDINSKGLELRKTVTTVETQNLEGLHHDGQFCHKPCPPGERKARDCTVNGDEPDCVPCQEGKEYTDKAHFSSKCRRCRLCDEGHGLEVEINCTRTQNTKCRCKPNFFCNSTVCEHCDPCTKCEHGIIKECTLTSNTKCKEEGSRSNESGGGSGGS

[5] = biological target: T1, His-Fas (His-tagged human Fas …); test: BLI
[6] = biological target: T2, Fc-tagged Fas (recombinant extracellular domain of Fas with a C-terminal Fc) (human, UniProt P25445 26-173); test: ELISA; Fc-tagged Fas (2 μg/ml) coated on 96-well plates; His-tagged FasL (single or tandem) in 2-fold dilutions from 50 to 0.048 nM, 1 h at 37 °C; conditions: both partners purified
T2 construct: human Fas (CD95) extracellular domain; also called Fas-IgG1 Fc; IgG4-Fc-tagged Fas; source: FreeStyle CHO-S cells, purified (protein A columns); not shown: Fc (IgG4 in the methods, IgG1 in the results), C-terminal, kept
T2 sequence (looked up): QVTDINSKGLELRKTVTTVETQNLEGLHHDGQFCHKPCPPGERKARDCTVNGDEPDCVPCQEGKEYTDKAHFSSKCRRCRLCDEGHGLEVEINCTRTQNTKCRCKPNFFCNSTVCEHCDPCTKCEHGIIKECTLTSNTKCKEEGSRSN

[7] = biological target: the molecule itself; test: non-reducing, partially denaturing SDS-PAGE with anti-His immunoblot; purified His-tagged FasL added to Jurkat cells in culture wells, 30 min; soup and total lysates together; FasL trimer formation

In the case of CH11 IgG1, the Kd [1] is reported as 2.02 nM, the Kd [2] is reported as 0.983 nM and the Kd (His-Fas^R87A (human)) is reported as 2.2 nM.

“His_FasL^TL1A (His-tagged FasL with the cognate region of TL1A, DTYGIV to HELGLA) (ligand)” was tested, and the cytotoxic activity against T cells (cell survival assay, Fig. 3F, G) [3] was greater than 70%.

B1: DB-FasL (protein)
chain: PSPPPEKKELRKVAHLTGKSNSRSMPLEWEDTYGIVLLSGVKYKKGGLVINETGLYFVYSKVYFRGQSCNNLPLSHKVYMRNSKYPQDLVMMEGKMMSYCTTGQMWARSSYLGAVFNLTSADHLYVNVSELSLVNFEESQTFFGLYKL
modifications: Wild-type FasL ectodomain fused to the C-terminus (CH3) of the idarucizumab (anti-dabigatran) IgG1 heavy chain, one FasL per heavy chain. The IgG carrier and linker are left out because they do not bind Fas. Limits are taken from the sister constructs His-FasL WT and E09-FasL WT printed in the tables (PSPPPEKKEL...GLYKL).
B1 gave a Kd [4] of 60.6 nM and a koff [5] of 0.0049 s⁻¹.

B2: His_FasL^WT (N-terminal His-tagged human FasL, wild type) (ligand)
chain: GGSPSPPPEKKELRKVAHLTGKSNSRSMPLEWEDTYGIVLLSGVKYKKGGLVINETGLYFVYSKVYFRGQSCNNLPLSHKVYMRNSKYPQDLVMMEGKMMSYCTTGQMWARSSYLGAVFNLTSADHLYVNVSELSLVNFEESQTFFGLYKL
notes: linker between the His tag and FasL; also called WT FasL; His-tagged FasL; source: FreeStyle CHO-S cells, transfected, purified (Ni-Sepharose HisTrap); not shown: His7, N-terminal, kept
B2 was tested, and the binding result [6] was “binds” and the “stoichiometry N” value [7] was 3.

B3: His_FasL^D164A (printed as His_FasL^D163A in Table 1) (ligand, human)
chain: B2 chain with D34A
notes: linker between the His tag and FasL; source: FreeStyle CHO-S cells, transfected, purified (Ni-Sepharose HisTrap); not shown: His7, N-terminal, kept
B3: binds [6].

B4: His_FasL^E163A (ligand, human)
chain: B2 chain with E33A
notes: linker between the His tag and FasL; also called A163; source: FreeStyle CHO-S cells, transfected, purified (Ni-Sepharose HisTrap); not shown: His7, N-terminal, kept
For B4, the “stoichiometry N” value [7] was 3.

B5: His_FasL^R156G (ALPS mutation) (ligand, human)
chain: B2 chain with R26G
notes: as for B3
B5: binds [6].

B6: His_FasL^E271A (ligand, human)
chain: B2 chain with E141A
notes: linker between the His tag and FasL; also called A271; source: FreeStyle CHO-S cells, transfected, purified (Ni-Sepharose HisTrap); not shown: His7, N-terminal, kept
B6 was tested, and the “stoichiometry N” value [7] was 3.

B7: His_FasL^E270A (ligand, human)
chain: B2 chain with E140A
notes: as for B3
B7: binds [6].

B8: His_FasL^WT-A247E (tandem: wild-type FasL unit and A247E unit) (ligand, human)
chain: GGSPSPPPEKKELRKVAHLTGKSNSRSMPLEWEDTYGIVLLSGVKYKKGGLVINETGLYFVYSKVYFRGQSCNNLPLSHKVYMRNSKYPQDLVMMEGKMMSYCTTGQMWARSSYLGAVFNLTSADHLYVNVSELSLVNFEESQTFFGLYKLGGGSGGGSGGGSPSPPPEKKELRKVAHLTGKSNSRSMPLEWEDTYGIVLLSGVKYKKGGLVINETGLYFVYSKVYFRGQSCNNLPLSHKVYMRNSKYPQDLVMMEGKMMSYCTTGQMWARSSYLGEVFNLTSADHLYVNVSELSLVNFEESQTFFGLYKL
notes: linker between the His tag and the first FasL unit; linker between the two FasL units; source: CHO expression system, purified (HisTrap Ni Sepharose); not shown: His7, N-terminal, kept
B8: binds [6].

B9: His_FasL^WT-G277S (tandem: wild-type FasL unit and G277S unit) (ligand, human)
chain: B8 chain with E277A, G307S
notes: as for B8
B9: binds [6].

B10: E09 IgG1 (preclinical Fas agonist antibody) (antibody, V domains shown)
VH: QLQLQESGPGLVKPSETLSLTCTVSGASISANSYYGVWVRQSPGKGLEWVGSIAYRGNSNSGSTYYNPSLKSRATVSVDTSKNQVSLRLTSVTAADTALYYCARRQLLDDGTGYQWAAFDVWGQGTMVTVSS
VL: QSVLTQPPSVSEAPRQTVTISCSGNSFNIGRYPVNWYQQLPGKAPKLLIYYNNLRFSGVSDRFSGSKSGTSASLAIRDLLSEDEADYYCSTWDDTLKGWVFGGGTKVTVLG
With B10 the Kd [4] was 0.377 nM.
